Experimental data from patent US20160264663A1 (published 2016).

Legend:
human podocalyxin [1] = target: T1, human podocalyxin (human); assay: flow cytometry, control, 1:5, hPodo/MDA-MB-231 transient transfectants
T1 chain: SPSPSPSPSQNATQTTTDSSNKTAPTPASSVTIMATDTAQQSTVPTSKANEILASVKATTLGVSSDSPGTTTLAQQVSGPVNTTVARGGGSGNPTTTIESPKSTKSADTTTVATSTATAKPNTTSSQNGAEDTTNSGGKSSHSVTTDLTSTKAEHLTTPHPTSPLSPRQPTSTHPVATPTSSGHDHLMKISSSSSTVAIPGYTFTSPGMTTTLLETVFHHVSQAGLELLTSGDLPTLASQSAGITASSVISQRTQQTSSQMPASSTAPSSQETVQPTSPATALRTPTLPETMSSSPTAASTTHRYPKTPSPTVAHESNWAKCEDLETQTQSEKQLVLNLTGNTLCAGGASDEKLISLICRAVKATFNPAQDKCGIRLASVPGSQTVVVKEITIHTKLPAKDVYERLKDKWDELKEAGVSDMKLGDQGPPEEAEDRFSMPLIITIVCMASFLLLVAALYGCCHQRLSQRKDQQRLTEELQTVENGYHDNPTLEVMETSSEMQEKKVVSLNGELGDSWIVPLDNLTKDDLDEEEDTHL

human podocalyxin [2] = target: T1, human podocalyxin; assay: flow cytometry, control, 1:125, hPodo/MDA-MB-231 transient transfectants
human podocalyxin [3] = target: T1, human podocalyxin; assay: flow cytometry, control, neat, MDA-MB-231 cells
human podocalyxin [4] = target: T1, human podocalyxin; assay: flow cytometry, control, 1:125, MDA-MB-231 cells
human podocalyxin [5] = target: T1, human podocalyxin; assay: flow cytometry, control, neat, hPodo/MDA-MB-231 transient transfectants
human podocalyxin [6] = target: T1, human podocalyxin; assay: flow cytometry, control, 2:15 (so in the source), MDA-MB-231 cells
human podocalyxin [7] = target: T1, human podocalyxin; assay: flow cytometry, control, 2:15 (so in the source), hPodo/MDA-MB-231 transient transfectants
human podocalyxin [8] = target: T1, human podocalyxin; assay: flow cytometry, control, 1:5, MDA-MB-231 cells
[9] = target: human podocalyxin (human); assay: flow cytometry, 5 ug/mL antibody, OVCAR10 cells
[10] = target: human podocalyxin (human); assay: flow cytometry, T47-D cells
[11] = target: human podocalyxin (human); assay: flow cytometry, 5 ug/mL antibody, 293 cells
[12] = target: human podocalyxin (human); assay: FACS on MDA-MB-231 cells; biotinylated antibody 5 ug/mL, no competitor (FACS Buffer row)
[13] = target: human podocalyxin (human); assay: flow cytometry, 5 ug/mL antibody, CaOV3 cells
[14] = target: human podocalyxin (human); assay: flow cytometry titration on 293-6E cells (endogenous podocalyxin), 24 hours at 4 C
[15] = target: human podocalyxin (human); assay: flow cytometry, supernatant 1:125, MDA-MB-231 cells
[16] = target: human podocalyxin (human); assay: FACS, hPodo/MDA cells (MDA-MB-231 transfected with human podocalyxin cDNA)
[17] = target: human podocalyxin (human); assay: flow cytometry, 5 ug/mL antibody, MDA-MB-231 cells
[18] = target: human podocalyxin (human); assay: kinetic exclusion assay (KinExA 3200), A172 cells
[19] = target: human podocalyxin (human); assay: flow cytometry, MCF7 cells
[20] = target: human podocalyxin (human); assay: flow cytometry, 5 ug/mL antibody, A172 cells
[21] = target: human podocalyxin (human); assay: flow cytometry, supernatant 2:15 (so in the source), MDA-MB-231 cells
[22] = target: human podocalyxin (human); assay: flow cytometry, CaOV3 cells
[23] = target: human podocalyxin (human); assay: flow cytometry, 5 ug/mL antibody, OVCAR3 cells
[24] = target: human podocalyxin (human); assay: flow cytometry, 5 ug/mL antibody, HUVEC cells
[25] = target: human podocalyxin (human); assay: flow cytometry, OVCAR3 cells
[26] = target: human podocalyxin (human); assay: flow cytometry, 5 ug/mL antibody, MCF7 cells
[27] = target: human podocalyxin (human); assay: flow cytometry, 293 HEK cells
[28] = target: human podocalyxin (human); assay: kinetic exclusion assay (KinExA 3200), MDA-MB-231 cells
[29] = target: human podocalyxin (human); assay: flow cytometry, HUVEC cells
[30] = target: human podocalyxin (human); assay: flow cytometry, supernatant 1:5, MDA-MB-231 cells
[31] = target: human podocalyxin (human); assay: flow cytometry, OVCAR10 cells
[32] = target: human podocalyxin (human); assay: flow cytometry, supernatant neat, hPodo/MDA-MB-231 transient transfectants
[33] = target: human podocalyxin (human); assay: flow cytometry, 5 ug/mL antibody, T47-D cells
[34] = target: human podocalyxin (human); assay: flow cytometry, A172 cells
[35] = target: human podocalyxin (human); assay: flow cytometry, SKOV3 cells
[36] = target: human podocalyxin (human); assay: flow cytometry, supernatant 1:125, hPodo/MDA-MB-231 transient transfectants
[37] = target: human podocalyxin (human); assay: flow cytometry, MDA-MB-231 cells
[38] = target: human podocalyxin (human); assay: flow cytometry, supernatant 2:15 (so in the source), hPodo/MDA-MB-231 transient transfectants
[39] = target: human podocalyxin (human); assay: flow cytometry titration on 293-6E cells (endogenous podocalyxin), 48 hours at 4 C
[40] = target: human podocalyxin (human); assay: flow cytometry, supernatant 1:5, hPodo/MDA-MB-231 transient transfectants
[41] = target: human podocalyxin (human); assay: flow cytometry, supernatant neat, MDA-MB-231 cells

Q: With Rb IgG (antibody) as the molecule, how does the FACS signal (name not given) (human podocalyxin [1]) read?
A: The FACS signal (name not given) was 660.

Q: What about the FACS signal (name not given) (human podocalyxin [2]) of the same molecule?
A: The FACS signal (name not given) was 645.

Q: And the FACS signal (name not given) (human podocalyxin [3])?
A: The FACS signal (name not given) was 574.

Q: What about the FACS signal (name not given) (human podocalyxin [4]) of the same molecule?
A: Its FACS signal (name not given) is 431.

Q: And the FACS signal (name not given) (human podocalyxin [5])?
A: Its FACS signal (name not given) is 762.

Q: What about the FACS signal (name not given) (human podocalyxin [6]) of the same molecule?
A: The FACS signal (name not given) was 438.

Q: What about the FACS signal (name not given) (human podocalyxin [7]) of the same molecule?
A: The FACS signal (name not given) was 617.

Q: What about the FACS signal (name not given) (human podocalyxin [8]) of the same molecule?
A: The FACS signal (name not given) was 467.

B1: Rb/Hu Podo83 (Podo83 rabbit VH and VL, human IgG1 chimera) (antibody, V domains shown)
VH: CQSLAESGGRLVTPGTPLTLTCTASGIDLSSYAMGWVRQAPGKGLEYIGFIYASGSIFYASWAKGRFTISKTSSTTVDLKMTSLTTEDTATYFCARAGYYFGGNYDLNLWGQGTLVTVSS
VL: DIVLTQTPASVEVAVGGTVTIKCQASQSISNYLAWYQRKPGQPPRLLIYRASTLASGVSSRFKGSGSGTQFTLTISGVECADAATYYCQQGYVSNNLDNIFGGGTEVVVK
modifications: human IgG1/kappa constant regions
Q: Which results are given for B1?
A: Live cell GeoMean FL (geometric mean fluorescence units) [9]: 2820; Live cell GeoMean FL (geometric mean fluorescence units) [10]: 1130; Live cell GeoMean FL (geometric mean fluorescence units) [11]: 28200; FACS signal (name not given) [12]: 139000; Live cell GeoMean FL (geometric mean fluorescence units) [13]: 48800; EC50 [14]: 0.0295 µg/mL; FACS signal (name not given) [15]: 50600; FACS signal (name not given) [16]: 178000; Live cell GeoMean FL (geometric mean fluorescence units) [17]: 91900; Kd [18]: 0.103 nM; Live cell GeoMean FL (geometric mean fluorescence units) [19]: 28400; Live cell GeoMean FL (geometric mean fluorescence units) [20]: 170000; FACS signal (name not given) [21]: 102000; Live cell GeoMean FL (geometric mean fluorescence units) [22]: 23400; Live cell GeoMean FL (geometric mean fluorescence units) [23]: 16500; Live cell GeoMean FL (geometric mean fluorescence units) [24]: 44600; Live cell GeoMean FL (geometric mean fluorescence units) [25]: 28600; Live cell GeoMean FL (geometric mean fluorescence units) [26]: 60800; Live cell GeoMean FL (geometric mean fluorescence units) [27]: 28200; Kd [28]: 0.0456 nM; Live cell GeoMean FL (geometric mean fluorescence units) [29]: 24500; FACS signal (name not given) [30]: 121000; Live cell GeoMean FL (geometric mean fluorescence units) [31]: 1530; FACS signal (name not given) [32]: 79000; Live cell GeoMean FL (geometric mean fluorescence units) [33]: 1500; Live cell GeoMean FL (geometric mean fluorescence units) [34]: 224000; Live cell GeoMean FL (geometric mean fluorescence units) [35]: 59800; FACS signal (name not given) [36]: 58500; Live cell GeoMean FL (geometric mean fluorescence units) [37]: 88900; FACS signal (name not given) [38]: 155000; EC50 (half-maximal binding) [39]: 0.0305 µg/mL; FACS signal (name not given) [40]: 99300; FACS signal (name not given) [41]: 143000
